Our source for the percent inhibition of β-catenin co-immunoprecipitation against wild-type CTF2 values is paper PMC5146998.

In the assay the target is CTF2 mutant MUT9 (3xFLAG-tagged) (chicken) (UniProt Q90762). The experiment in a line: co-IP.
Sequence of UniProt Q90762 (Q90762 637-790, change not shown): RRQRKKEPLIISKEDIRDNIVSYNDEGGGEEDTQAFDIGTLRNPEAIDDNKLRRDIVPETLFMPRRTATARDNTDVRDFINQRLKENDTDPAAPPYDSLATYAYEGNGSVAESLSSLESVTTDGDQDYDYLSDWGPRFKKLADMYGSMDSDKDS

Take “β-catenin (endogenous, LMH cells) (natural protein)”: the percent inhibition of β-catenin co-immunoprecipitation against wild-type CTF2 turned out to be 87.5%.
